Here are results for 6 molecules from patent EP4624485A1, “PEPTIDE THAT TARGETS MACROPHAGES AND USES THEREOF” (Consejo Superior De Investigaciones Científicas, priority 2024, dated 2025).

Bridge positions count the residues as written; N and C are the ends. Ends that are not written are not given here. Peptide text beside a SMILES is read from it. * marks the point of attachment. 5FAM = O=C1OC2(c3ccc(O)cc3Oc3cc(O)ccc32)c2ccc(C(=O)*)cc21; Vert = not defined here; Ahx = NCCCCCC(=O)O

For data set [1] the following is noted: mouse, in vivo.
In data set [2] the target is T1, human recombinant CD206 (Homo sapiens, UniProt P22897).
T1 construct: purchased R&D systems 2534-MR-050/CF
T1 sequence (P22897 19-1456): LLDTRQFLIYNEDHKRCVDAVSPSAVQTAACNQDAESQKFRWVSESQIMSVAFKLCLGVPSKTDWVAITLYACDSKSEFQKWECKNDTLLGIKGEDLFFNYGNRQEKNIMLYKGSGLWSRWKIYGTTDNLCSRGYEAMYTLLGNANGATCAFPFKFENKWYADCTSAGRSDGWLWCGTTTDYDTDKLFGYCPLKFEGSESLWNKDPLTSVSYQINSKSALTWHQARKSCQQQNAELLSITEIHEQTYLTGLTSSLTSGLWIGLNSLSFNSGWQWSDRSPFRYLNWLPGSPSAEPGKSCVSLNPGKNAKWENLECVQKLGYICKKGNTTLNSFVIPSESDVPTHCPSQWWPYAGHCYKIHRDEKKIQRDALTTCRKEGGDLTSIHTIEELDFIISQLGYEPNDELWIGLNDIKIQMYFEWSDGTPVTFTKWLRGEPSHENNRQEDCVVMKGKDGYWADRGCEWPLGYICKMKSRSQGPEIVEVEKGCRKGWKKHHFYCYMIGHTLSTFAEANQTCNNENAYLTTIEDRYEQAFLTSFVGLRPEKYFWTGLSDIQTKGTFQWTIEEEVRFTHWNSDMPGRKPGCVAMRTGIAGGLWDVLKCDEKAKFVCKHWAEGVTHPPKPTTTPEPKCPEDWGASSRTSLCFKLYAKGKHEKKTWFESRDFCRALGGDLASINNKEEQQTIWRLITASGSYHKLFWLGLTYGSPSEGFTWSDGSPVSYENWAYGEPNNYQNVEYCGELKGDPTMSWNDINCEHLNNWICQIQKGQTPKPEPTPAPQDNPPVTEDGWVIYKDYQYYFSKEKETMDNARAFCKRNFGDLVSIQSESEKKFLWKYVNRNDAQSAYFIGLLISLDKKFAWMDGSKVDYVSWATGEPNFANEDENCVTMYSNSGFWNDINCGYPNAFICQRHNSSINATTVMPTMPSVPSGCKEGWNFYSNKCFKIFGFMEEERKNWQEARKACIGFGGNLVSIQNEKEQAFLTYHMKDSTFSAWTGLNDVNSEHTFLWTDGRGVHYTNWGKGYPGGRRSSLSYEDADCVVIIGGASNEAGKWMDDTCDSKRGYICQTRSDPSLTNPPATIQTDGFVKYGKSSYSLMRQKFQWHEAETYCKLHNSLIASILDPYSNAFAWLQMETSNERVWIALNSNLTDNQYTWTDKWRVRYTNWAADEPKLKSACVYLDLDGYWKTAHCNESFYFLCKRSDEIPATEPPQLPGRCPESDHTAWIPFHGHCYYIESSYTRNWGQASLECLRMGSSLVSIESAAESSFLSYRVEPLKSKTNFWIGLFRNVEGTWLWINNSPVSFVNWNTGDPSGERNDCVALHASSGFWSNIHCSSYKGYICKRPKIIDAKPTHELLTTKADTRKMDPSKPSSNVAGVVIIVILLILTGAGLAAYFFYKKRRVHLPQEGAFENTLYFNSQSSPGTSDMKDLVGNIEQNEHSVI
The data set can be described thus: Quartz Crystal Microbalance (QCM) binding to PAH/CD206 multilayer. The conditions noted are these: peptides 10µM in PBS, curve fitting, read-out: constant of association. The text has this:
To confirm the capacity of MACTIDE to bind to CD206, we evaluated binding to recombinant CD206 included in a viscoelastic film, using Quartz Crystal Microbalance (QCM). QCM is a powerful technique used to study label-free ligand-receptor interactions in solution (Baltus, R. E. et al., Langmuir 2007, 23 (7), 3880-3885), wherein peptide binding and dissociation is sensed through a mass increase or decrease on a resonating crystal surface functionalized with the receptor. Here, we evaluated the mass changes of MACTIDE when binding and dissociating in solution to CD206 immobilized on a viscoelastic film, deposited on a gold-modified quartz crystal resonating at 5 MHz. […]
The Quartz Crystal Microbalance (QCM) used was QCM200 system from Stanford Research Systems (Sunnyvale, CA, USA). […] Then, a baseline with 500µL of mQ at pH 8 was recorded, the measurement was paused and then 5µL of a 1mg/mL solution in PBS were added (human recombinant CD206, Cat # 2534-MR-050/CF from R&D systems, reconstituted with 50µL of mQ); final concentration of CD206 in the cell: 0.01 mg/mL. […] For peptides, 500µL of PBS were placed in the cell and the baseline was recorded, the measurement was then paused and 50µL of a 100µM solution of peptides in PBS were gently deposited on the cell and the measurement was resumed. […]

In data set [3] the test system is (LPS + IFNy)-stimulated macrophages. The data set can be described thus: In vitro photodynamic therapy, MTT cell viability, (LPS + IFNγ)-stimulated macrophages. In kind it is cell-based, human. The conditions noted are these: with and without irradiation, 30µM.
The test system of data set [4] is IL4-stimulated macrophages. Description: In vitro photodynamic therapy, MTT cell viability, IL4-stimulated macrophages. Type of data set: cell-based, human. The conditions noted are these: with and without irradiation, 30µM.
Data set [5] deals with T2, human recombinant CD206 (Cat # 2534-MR-050/CF from R&D systems) (human, UniProt P22897 19-1383, limits assumed).
T2 construct: Bought recombinant protein; also called Macrophage Mannose Receptor 1; PAH/CD206 multilayer
T2 sequence: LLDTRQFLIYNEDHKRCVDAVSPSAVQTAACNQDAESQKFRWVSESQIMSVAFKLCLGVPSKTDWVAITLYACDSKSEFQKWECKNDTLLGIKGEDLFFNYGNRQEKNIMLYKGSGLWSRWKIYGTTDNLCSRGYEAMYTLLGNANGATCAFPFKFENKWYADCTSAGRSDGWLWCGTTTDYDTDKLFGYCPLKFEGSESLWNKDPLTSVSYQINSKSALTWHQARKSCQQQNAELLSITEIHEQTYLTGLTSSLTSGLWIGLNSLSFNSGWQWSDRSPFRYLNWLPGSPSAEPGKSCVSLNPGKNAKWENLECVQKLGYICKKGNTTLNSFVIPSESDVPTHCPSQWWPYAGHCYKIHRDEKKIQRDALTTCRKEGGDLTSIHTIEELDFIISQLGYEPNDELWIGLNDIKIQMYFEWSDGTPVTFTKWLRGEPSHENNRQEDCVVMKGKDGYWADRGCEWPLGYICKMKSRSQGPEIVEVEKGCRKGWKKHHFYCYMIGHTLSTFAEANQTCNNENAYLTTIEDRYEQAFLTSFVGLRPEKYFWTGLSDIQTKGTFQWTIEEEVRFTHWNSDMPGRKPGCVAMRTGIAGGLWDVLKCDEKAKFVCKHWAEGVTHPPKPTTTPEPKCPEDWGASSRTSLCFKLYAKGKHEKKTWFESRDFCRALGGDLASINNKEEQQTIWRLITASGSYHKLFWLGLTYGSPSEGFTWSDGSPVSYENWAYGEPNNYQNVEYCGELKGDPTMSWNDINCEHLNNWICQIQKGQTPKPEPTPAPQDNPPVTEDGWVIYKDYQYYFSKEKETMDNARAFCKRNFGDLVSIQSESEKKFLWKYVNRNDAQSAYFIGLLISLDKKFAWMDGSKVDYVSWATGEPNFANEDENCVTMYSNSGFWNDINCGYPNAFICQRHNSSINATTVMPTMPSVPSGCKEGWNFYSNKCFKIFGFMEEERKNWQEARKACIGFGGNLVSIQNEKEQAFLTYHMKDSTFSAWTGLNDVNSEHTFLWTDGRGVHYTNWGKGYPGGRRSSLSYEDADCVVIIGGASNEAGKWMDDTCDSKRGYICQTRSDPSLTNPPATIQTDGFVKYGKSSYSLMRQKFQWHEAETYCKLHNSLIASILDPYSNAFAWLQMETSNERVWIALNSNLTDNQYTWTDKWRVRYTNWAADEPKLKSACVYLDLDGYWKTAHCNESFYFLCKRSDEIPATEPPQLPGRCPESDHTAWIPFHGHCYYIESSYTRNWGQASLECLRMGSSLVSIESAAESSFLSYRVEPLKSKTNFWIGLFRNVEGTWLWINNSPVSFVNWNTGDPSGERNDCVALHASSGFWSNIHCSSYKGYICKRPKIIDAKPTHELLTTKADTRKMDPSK
Description: QCM, PAH/CD206 multilayer, curves fitted with TraceDrawer.

For data set [6], the target named is T3, Bovine Serum Albumin (BSA, Cat # A7906, Sigma-Aldrich) (bovine, UniProt P02769 25-607).
T3 construct: Control protein deposited on PAH as the control multilayer; also called PAH/BSA control multilayer
T3 sequence (P02769 25-607 limits assumed): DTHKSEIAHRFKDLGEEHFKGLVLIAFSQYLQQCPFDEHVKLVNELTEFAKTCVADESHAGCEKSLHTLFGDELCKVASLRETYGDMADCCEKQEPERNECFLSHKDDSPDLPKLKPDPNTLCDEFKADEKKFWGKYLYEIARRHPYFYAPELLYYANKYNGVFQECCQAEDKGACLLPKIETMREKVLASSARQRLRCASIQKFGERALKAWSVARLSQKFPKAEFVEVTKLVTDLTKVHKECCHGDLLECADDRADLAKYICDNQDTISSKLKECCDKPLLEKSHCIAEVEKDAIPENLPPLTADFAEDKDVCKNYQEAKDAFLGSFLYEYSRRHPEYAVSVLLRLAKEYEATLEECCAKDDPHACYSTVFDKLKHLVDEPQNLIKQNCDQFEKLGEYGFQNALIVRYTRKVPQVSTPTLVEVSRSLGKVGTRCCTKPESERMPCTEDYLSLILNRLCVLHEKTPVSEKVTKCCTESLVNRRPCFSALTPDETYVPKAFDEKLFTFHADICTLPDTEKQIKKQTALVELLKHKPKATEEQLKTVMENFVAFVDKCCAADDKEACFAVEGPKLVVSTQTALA
Description: QCM, peptide in PBS on PAH/BSA control multilayer.

The target of data set [7] is T2, human recombinant CD206 (Cat # …). The data set can be described thus: QCM (summary of example 3, Fig. 3).

For the molecule `CC[C@H](C)[C@@H]1NC(=O)[C@@H]2CCCN2C(=O)[C@@H]2CCCN2C(=O)[C@H]([C@@H](C)CC)NC(=O)[C@H](CO)NC(=O)[C@H](CCCCN)NC(=O)[C@H]([C@@H](C)O)NC(=O)[C@@H](NC(=O)CNC(=O)CCCCCNC(=O)c2ccc3c(c2)C(=O)OC32c3ccc(O)cc3Oc3cc(O)ccc32)CSSC[C@@H](C(=O)N[C@@H](CO)C(=O)N2CCC[C@H]2C(=O)NCC(=O)N[C@@H](C)C(=O)N[C@@H](CCCCN)C(=O)O)NC1=O` [FAM-MACTIDE] ({5FAM-Ahx}-GCTKSIPPICSPGAK-OH; disulfide 2-10), in data set [1], the blood half-life entry is “the same as those obtained previously for FAM-mUNO”.
Regarding CSPGAK [mUNO, CSPGAK], in data set [2], the kon at 10 µM came to 1400 M⁻¹ s⁻¹.
On to “Vert-CtrlPep: control conjugate, Vert-Ahx- on AKPCGS (SEQ ID NO: 8) ({Vert-Ahx}-AKPCGS; reading uncertain)”, for which the toxicity result in data set [3] and in data set [4] was “no toxicity” each time.
With `CC[C@H](C)[C@@H]1NC(=O)[C@@H]2CCCN2C(=O)[C@@H]2CCCN2C(=O)[C@H]([C@@H](C)CC)NC(=O)[C@H](CO)NC(=O)[C@H](CCCCN)NC(=O)[C@H]([C@@H](C)O)NC(=O)[C@@H](NC(=O)CN)CSSC[C@@H](C(=O)N[C@@H](CO)C(=O)N2CCC[C@H]2C(=O)NCC(=O)N[C@@H](C)C(=O)N[C@@H](CCCCN)C(=O)O)NC1=O` [MACTIDE, GCTKSIPPICSPGAK] (H-GCTKSIPPICSPGAK-OH; disulfide 2-10), the kon at 10 µM in data set [2] was 650 M⁻¹ s⁻¹.
On to CSPGAK (also called mUNO peptide) [mUNO], for which, in data set [5], the equilibrium dissociation constant (Kd) stood at 6 µM, the koff was found to be 0.0087 s⁻¹ and the kon was determined as 1400 M⁻¹ s⁻¹. Moreover, in data set [6], the binding result is given as “no binding (tested: 10µM)”.

B1: MACTIDE (peptide)
peptide: GCTKSIPPICSPGAK
modifications: disulfide 2-10
notes: Monocyclic through the C2-C10 disulfide; also called the peptide of the invention
B1: in data set [7], the “fold higher affinity (against mUNO)” value was found to be 15 fold. In addition, in data set [5], the dissociation constant Kd worked out at 0.38 µM, the “fold slower dissociation constant against mUNO” value is 30 fold, the off-rate (koff) is 0.00025 s⁻¹ and the kon stood at 650 M⁻¹ s⁻¹. Besides, the binding result in data set [6] is given as “no binding (tested: 10µM)”.

What is called Kd is the free concentration of one partner at which half of the binding sites on the other are occupied at equilibrium, for simple one-to-one binding. By koff is commonly meant a measure of how fast the partners let go of each other.
